Common to all, as to experiment: cell-based or functional assay
Experiment [1] deals with HIV-1 Env of pseudovirus MGRM-F1-020 (clade F) (HIV-1).
Experiment [2] addresses HIV-1 Env of isolate MGRM-D-024 (clade D pseudovirus) (HIV-1).
The target of experiment [3] is HIV-1 Env of isolate TRJ0.58 (Acute), clade B (HIV-1).
The target in experiment [4] is HIV-1 envelope glycoprotein (Env) of isolate MGRM-C-010 (HIV-1).
In experiment [5] the target is HIV-1 Env of isolate MGRM-D-001 (clade D pseudovirus) (HIV-1).
Experiment [6] addresses HIV-1 Env of isolate MGRM-D-016 (clade D pseudovirus) (HIV-1).
In experiment [7] the target is HIV-1 envelope glycoprotein (Env) of isolate MGRM-C-012 (HIV-1).
Experiment [8] addresses HIV-1 Env of isolate 92RW009 (clade A pseudovirus) (HIV-1).
In experiment [9] the target is HIV-1 Env of isolate MGRM-A-012 (clade A pseudovirus) (HIV-1).
In experiment [10] the target is HIV-1 envelope glycoprotein (Env) of isolate MGRM-C-008 (HIV-1).
For experiment [11], the target named is HIV-1 93IN905 envelope (Env) on pseudovirus (HIV-1).
In experiment [12] the target is HIV-1 Env of pseudovirus MGRM-F1-022 (clade F) (HIV-1).
For experiment [13], the target named is HIV-1 Env of pseudovirus MGRM-F1-012 (clade F) (HIV-1).
Experiment [14] deals with HIV-1 Env of isolate 6535.3 (Acute), clade B (HIV-1).
Experiment [15] has as its target HIV-1 Env of isolate MGRM-A-013 (clade A pseudovirus) (HIV-1).
The target of experiment [16] is HIV-1 Env of isolate MGRM-Chronic-B-003, clade B (HIV-1).
For experiment [17], the target named is HIV-1 Env of isolate 93TH305, clade B (HIV-1).
Experiment [18] addresses HIV-1 Env of isolate MGRM-D-014 (clade D pseudovirus) (HIV-1).

Chain of 1443_C16 (PG16) (TCN-116) (antibody) (VH): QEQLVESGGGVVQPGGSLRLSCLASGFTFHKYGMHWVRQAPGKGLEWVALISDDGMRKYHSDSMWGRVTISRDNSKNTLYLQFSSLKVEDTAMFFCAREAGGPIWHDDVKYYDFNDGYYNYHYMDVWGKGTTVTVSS
Chain of 1443_C16 (PG16) (TCN-116) (antibody) (VL): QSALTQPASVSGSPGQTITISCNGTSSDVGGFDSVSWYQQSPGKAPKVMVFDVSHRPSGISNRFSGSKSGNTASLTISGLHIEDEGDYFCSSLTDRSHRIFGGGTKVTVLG

By IC50 is commonly meant the concentration at which inhibition is half-maximal. Read a high IC50 as lower potency. In the case of b12 (antibody), the half-inhibitory concentration (IC50) in experiment [1], in experiment [12] and in experiment [13] was above 50 µg/mL throughout. Moreover, the IC50, pseudovirus neutralization in experiment [2] was 5.92 µg/mL; in [5] it was above 50 µg/mL; in [6], 1.12 µg/mL; in experiment [18], above 50 µg/mL. For the same substance, the IC50 (µg/ml), pseudovirus neutralization in experiment [3] was above 50 µg/mL; in [4], above 50 µg/mL; in experiment [7], above 50 µg/mL; in [8], above 50 µg/mL; in experiment [9] it was above 50 µg/mL; in experiment [10], 1.51 µg/mL. Moreover, the IC50 (µg/ml), pseudovirus neutralization in experiment [14] was 1.93 µg/mL; in [15] it was 7.04 µg/mL; in [16] it was above 50 µg/mL; in experiment [17], 4.17 µg/mL. The same substance registered a neutralization IC50 in [11] of 34.1 µg/mL.

As for 1443_C16 (PG16) (TCN-116) (antibody), the IC50 worked out at 4.35 µg/mL in [1], 0.08 µg/mL in experiment [12] and 0.003 µg/mL in [13]. Moreover, the IC50, pseudovirus neutralization in experiment [2] is 0.02 µg/mL; in [5] it was above 50 µg/mL; in [6], 0.02 µg/mL; in experiment [18] it was 0.003 µg/mL. The IC50 (µg/ml), pseudovirus neutralization is 1.16 µg/mL in [3]; above 50 µg/mL in experiment [4]; 0.48 µg/mL in experiment [7]; 0.11 µg/mL in experiment [8]; 20.7 µg/mL in experiment [9]; above 50 µg/mL in experiment [10]. Further, the IC50 (µg/ml), pseudovirus neutralization in experiment [14] is 36.9 µg/mL; in [15], 0.09 µg/mL; in experiment [16], 0.19 µg/mL; in experiment [17] it was 19.3 µg/mL. The neutralization IC50 in [11] amounted to 0.102 µg/mL.

Take 4E10 (antibody): the IC50 stood at 0.66 µg/mL in experiment [1], 1.01 µg/mL in [12] and 0.37 µg/mL in [13]. Moreover, the IC50, pseudovirus neutralization in experiment [2] worked out at 3.6 µg/mL; in experiment [5], 1.84 µg/mL; in [6] it was 15.4 µg/mL; in experiment [18], 3.24 µg/mL. The IC50 (µg/ml), pseudovirus neutralization in experiment [3] is 11.9 µg/mL; in experiment [4], 11 µg/mL; in experiment [7] it was 0.44 µg/mL; in [8], above 50 µg/mL; in [9] it was 4.27 µg/mL; in experiment [10] it was 2.97 µg/mL. Further, the IC50 (µg/ml), pseudovirus neutralization in [14] came to 1.23 µg/mL; in experiment [15] it was 1.46 µg/mL; in experiment [16], 3.5 µg/mL; in [17], 12.3 µg/mL. This substance came in with a neutralization IC50 in [11] of 1.55 µg/mL.

With 2F5 (antibody), the IC50 is 0.59 µg/mL in [1], 1.26 µg/mL in [12] and above 50 µg/mL in experiment [13]. Further, the IC50, pseudovirus neutralization is above 50 µg/mL in experiment [2], 0.63 µg/mL in experiment [5], 9.85 µg/mL in [6] and 2.22 µg/mL in [18]. Besides, the IC50 (µg/ml), pseudovirus neutralization in experiment [3] is above 50 µg/mL; in [4], above 50 µg/mL; in experiment [7] it was above 50 µg/mL; in experiment [8], 39.1 µg/mL; in [9], 2.36 µg/mL; in experiment [10], above 50 µg/mL. Further, the IC50 (µg/ml), pseudovirus neutralization is 2.76 µg/mL in experiment [14], 0.66 µg/mL in experiment [15], 1 µg/mL in [16] and 7.61 µg/mL in [17]. Further, the neutralization IC50 in experiment [11] is above 50 µg/mL.

As to 1495_C14 (PGC14) (antibody), the IC50 in experiment [1], in experiment [12] and in [13] was above 50 µg/mL each time. The IC50, pseudovirus neutralization was above 50 µg/mL in experiment [2], above 50 µg/mL in [5], above 50 µg/mL in [6] and 48 µg/mL in experiment [18]. The IC50 (µg/ml), pseudovirus neutralization in experiment [3], in experiment [4], in experiment [7], in experiment [8], in experiment [9] and in experiment [10] was above 50 µg/mL throughout. Besides, the IC50 (µg/ml), pseudovirus neutralization in experiment [14] was 35 µg/mL; in experiment [15] it was above 50 µg/mL; in [16], above 50 µg/mL; in experiment [17], 6 µg/mL. Further, the neutralization IC50 in experiment [11] is above 50 µg/mL.

As to 2G12 (antibody), the IC50 in [1] is above 50 µg/mL; in [12], above 50 µg/mL; in experiment [13] it was 1.81 µg/mL. The IC50, pseudovirus neutralization in [2], in experiment [5], in experiment [6] and in experiment [18] was above 50 µg/mL in each case. In addition, the IC50 (µg/ml), pseudovirus neutralization is above 50 µg/mL in experiment [3]; above 50 µg/mL in [4]; above 50 µg/mL in experiment [7]; 26.1 µg/mL in experiment [8]; above 50 µg/mL in [9]; above 50 µg/mL in [10]. The IC50 (µg/ml), pseudovirus neutralization in experiment [14] is 3.85 µg/mL; in [15] it was above 50 µg/mL; in [16], 0.06 µg/mL; in experiment [17] it was 0.55 µg/mL. The neutralization IC50 in [11] was above 50 µg/mL.

(Values after US20240132578A1.)
